Substrate in data set [1]: NCCCCC(=O)O
Briefly: purified protein. It is filed as biochemical, Escherichia coli. The settings on record: coupled with GabD (rate-limiting dehydrogenase), 5 mM α-ketoglutarate, 500 µM NADP+, pH 8.0, room temperature.

Substrate in data set [2]: NCCCC(=O)O
Description: purified protein. The settings on record: coupled with GabD (rate-limiting dehydrogenase), 5 mM α-ketoglutarate, 500 µM NADP+, pH 8.0, room temperature.

Substrate in data set [3]: O=C(O)CCCC(=O)O
Briefly: O2 consumption, Clark electrode. To be noted: 1 mM α-ketoglutarate, 4 µM Fe(NH4)2SO4, 400 µM ascorbate, MOPS pH 7.2, 30 °C. It is filed as biochemical, Escherichia coli.

Substrate in data set [4]: O=C(O)CCC(=O)C(=O)O
Briefly: O2 consumption, Clark electrode. It is filed as biochemical, Escherichia coli. The settings on record: 5 mM glutarate, 4 µM Fe(NH4)2SO4, 400 µM ascorbate, MOPS pH 7.2, 30 °C.

Substrate in data set [5]: NCCCCCN
Briefly: purified protein. The settings on record: coupled with PatD (rate-limiting dehydrogenase), 5 mM α-ketoglutarate, 500 µM NAD+, pH 8.0, room temperature. It is filed as biochemical, Escherichia coli.

Substrate in data set [6]: NCCCCN
Description: purified protein. It is filed as biochemical, Escherichia coli. To be noted: coupled with PatD (rate-limiting dehydrogenase), 5 mM α-ketoglutarate, 500 µM NAD+, pH 8.0, room temperature.

In general, Km refers to the substrate concentration at which the rate is half of its maximum.

B1: GabT (Escherichia coli K-12) (protein)
chain: MNSNKELMQRRSQAIPRGVGQIHPIFADRAENCRVWDVEGREYLDFAGGIAVLNTGHLHPKVVAAVEAQLKKLSHTCFQVLAYEPYLELCEIMNQKVPGDFAKKTLLVTTGSEAVENAVKIARAATKRSGTIAFSGAYHGRTHYTLALTGKVNPYSAGMGLMPGHVYRALYPCPLHGISEDDAIASIHRIFKNDAAPEDIAAIVIEPVQGEGGFYASSPAFMQRLRALCDEHGIMLIADEVQSGAGRTGTLFAMEQMGVAPDLTTFAKSIAGGFPLAGVTGRAEVMDAVAPGGLGGTYAGNPIACVAALEVLKVFEQENLLQKANDLGQKLKDGLLAIAEKHPEIGDVRGLGAMIAIELFEDGDHNKPDAKLTAEIVARARDKGLILLSCGPYYNVLRILVPLTIEDAQIRQGLEIISQCFDEAKQ
notes: full ORF, N-terminal 6xHis tag (pET28a), expressed in E. coli BL21(DE3); assayed coupled with GabD
As to B1, the Km in the data set “purified protein [1]” came to 439 ± 29 µM; in “purified protein [2]”, 197 ± 27 µM.

B2: CsiD (Escherichia coli K-12) (protein)
chain: MNALTAVQNNAVDSGQDYSGFTLTPSAQSPRLLELTFTEQTTKQFLEQVAEWPVQALEYKSFLRFRVAKILDDLCANQLQPLLLKTLLNRAEGALLINAVGVDDVKQADEMVKLATAVAHLIGRSNFDAMSGQYYARFVVKNVDNSDSYLRQPHRVMELHNDGTYVEEITDYVLMMKIDEQNMQGGNSLLLHLDDWEHLDNYFRHPLARRPMRFAAPPSKNVSKDVFHPVFDVDQQGRPVMRYIDQFVQPKDFEEGVWLSELSDAIETSKGILSVPVPVGKFLLINNLFWLHGRDRFTPHPDLRRELMRQRGYFAYASNHYQTHQ
notes: full ORF, N-terminal 6xHis tag (pET28a), expressed in E. coli BL21(DE3); Fe(II); homotetramer
For the protein B2, the Km in data set [3] came to 650 ± 20 µM; in data set [4] it was 100 ± 7 µM.

B3: PatA (Escherichia coli K-12) (protein)
chain: MNRLPSSASALACSAHALNLIEKRTLDHEEMKALNREVIEYFKEHVNPGFLEYRKSVTAGGDYGAVEWQAGSLNTLVDTQGQEFIDCLGGFGIFNVGHRNPVVVSAVQNQLAKQPLHSQELLDPLRAMLAKTLAALTPGKLKYSFFCNSGTESVEAALKLAKAYQSPRGKFTFIATSGAFHGKSLGALSATAKSTFRKPFMPLLPGFRHVPFGNIEAMRTALNECKKTGDDVAAVILEPIQGEGGVILPPPGYLTAVRKLCDEFGALMILDEVQTGMGRTGKMFACEHENVQPDILCLAKALGGGVMPIGATIATEEVFSVLFDNPFLHTTTFGGNPLACAAALATINVLLEQNLPAQAEQKGDMLLDGFRQLAREYPDLVQEARGKGMLMAIEFVDNEIGYNFASEMFRQRVLVAGTLNNAKTIRIEPPLTLTIEQCELVIKAARKALAAMRVSVEEA
notes: purified enzyme, cloning not described in main text; assayed coupled with PatD
As to B3, the Km in the data set “purified protein [5]” was 370 ± 50 µM; in “purified protein [6]” it was 1430 ± 70 µM.

These data come from PMC6265302, “Widespread bacterial lysine degradation proceeding via glutarate and L-2-hydroxyglutarate” (Nature Communications, 2018).
